In the supplement of paper PMC7125110:
± gives the standard error. For some assays here: Fewer inactive variants are shown than the library holds.

B1: glmS ribozyme (parent)
chain: AUAAAAGCGCCAGAACUACAGAAAUGUAGUUGACGAGGAGGAGGUUUAUCGAAUUUUCGGCGGAUGCCUCCAAA

Assays:
Details in all cases: with glucosamine-6-phosphate
glucosamine-6-phosphate [1] = variants of: B1; test: kcat; higher = faster cleavage; RNA array
In short: (§1)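 Tiles bearing barcoded ribozyme variants, transcribed in situ by E. coli RNA polymerase on sequenced MiSeq chips, were imaged over ~14 h at 37 °C using a hybridised Cy3 probe. Glucosamine-6-phosphate was supplied at 40 μM to 10 mM in HEPES/KCl/Mg(OAc)2 buffer. kobs came from one- or two-exponential decay fits to normalised per-tile medians, and weighted Michaelis–Menten fits then provided kcat and KM.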

glucosamine-6-phosphate [2] = variants of: B1; test: KM; higher = weaker cofactor use; RNA array
In short: as §1

glucosamine-6-phosphate [3] = variants of: B1; test: self-cleavage kobs at 160 uM GlcN6P; higher = faster cleavage; RNA array
In short: as §1

glucosamine-6-phosphate [4] = variants of: B1; test: self-cleavage kobs at 640 uM GlcN6P; higher = faster cleavage; RNA array
In short: as §1

glucosamine-6-phosphate [5] = variants of: B1; test: self-cleavage kobs at 2500 uM GlcN6P; higher = faster cleavage; RNA array
In short: as §1

glucosamine-6-phosphate [6] = variants of: B1; test: self-cleavage kobs at 10000 uM GlcN6P; higher = faster cleavage; RNA array
In short: as §1

glucosamine-6-phosphate [7] = variants of: B1; test: self-cleavage kobs at 40 uM GlcN6P; higher = faster cleavage; RNA array
In short: as §1

| Variant | kcat (glucosamine-6-phosphate [1]) | KM (glucosamine-6-phosphate [2]) | self-cleavage kobs at 160 uM GlcN6P (glucosamine-6-phosphate [3]) | self-cleavage kobs at 640 uM GlcN6P (glucosamine-6-phosphate [4]) | self-cleavage kobs at 2500 uM GlcN6P (glucosamine-6-phosphate [5]) | self-cleavage kobs at 10000 uM GlcN6P (glucosamine-6-phosphate [6]) | self-cleavage kobs at 40 uM GlcN6P (glucosamine-6-phosphate [7]) |
| --- | --- | --- | --- | --- | --- | --- | --- |
| U31C U45G | 0.000845 ± 0.00014 s⁻¹ | 1870 ± 570 µM | 9.65e-05 ± 1.9e-05 s⁻¹ | 0.000189 ± 2.7e-05 s⁻¹ | 0.000505 ± 6.4e-05 s⁻¹ | 0.000713 ± 9.2e-05 s⁻¹ |  |
| G13A C70A | 2.43e-05 ± 6.3e-06 s⁻¹ |  |  |  |  |  |  |
| G51A | 1.01e-05 ± 2.8e-07 s⁻¹ | 965 ± 160 µM |  |  |  |  |  |
| G13U U65G C67G | 7.46e-05 ± 2.9e-06 s⁻¹ | 808 ± 170 µM |  |  | 6.05e-05 ± 2.3e-05 s⁻¹ | 6.81e-05 ± 1.5e-05 s⁻¹ |  |
| A12G G13A | 6.3e-05 ± 2.4e-06 s⁻¹ | 3470 ± 390 µM |  |  | 2.7e-05 ± 9.7e-06 s⁻¹ | 4.66e-05 ± 7.4e-06 s⁻¹ |  |
| A12C G13C | 6.35e-05 ± 2.1e-06 s⁻¹ | 1030 ± 240 µM |  |  | 4.89e-05 ± 2.3e-05 s⁻¹ | 5.73e-05 ± 7.8e-06 s⁻¹ |  |
| G60A U69G | 1.18e-05 ± 5e-06 s⁻¹ |  |  |  |  |  |  |
| G7U C16U C50G U69G | 0.000615 ± 0.00015 s⁻¹ |  |  | 0.0012 ± 0.00039 s⁻¹ | 0.000564 ± 0.0002 s⁻¹ | 0.00054 ± 0.00017 s⁻¹ | 0.00029 ± 0.00013 s⁻¹ |
| U31C G40C | 0.000274 ± 4.9e-05 s⁻¹ |  |  | 0.000125 ± 5e-05 s⁻¹ | 0.000177 ± 4e-05 s⁻¹ | 0.000287 ± 6.9e-05 s⁻¹ |  |
| G51C U69A | < 1e-05 s⁻¹ |  |  |  |  |  | < 1e-05 s⁻¹ |
| A15G U30C | 0.0225 ± 0.0031 s⁻¹ | 871 ± 170 µM | 0.00315 ± 0.00047 s⁻¹ | 0.0102 ± 0.0015 s⁻¹ | 0.0197 ± 0.005 s⁻¹ | 0.0186 ± 0.0045 s⁻¹ | 0.00107 ± 0.00018 s⁻¹ |
| U46A U69G | 7.21e-05 ± 2.1e-05 s⁻¹ |  |  | 0.000107 ± 1.7e-05 s⁻¹ | 8.42e-05 ± 1.3e-05 s⁻¹ | 4.27e-05 ± 1.3e-05 s⁻¹ |  |
| C50G U56G | 4.44e-05 ± 8.9e-06 s⁻¹ |  | 4.35e-05 ± 1.5e-05 s⁻¹ |  | 5.17e-05 ± 2.1e-05 s⁻¹ |  |  |
| C10U C11U A12G | 2.44e-05 ± 6.4e-06 s⁻¹ |  | < 1e-05 s⁻¹ |  |  |  |  |
| G13C C16G | 0.000162 ± 5.6e-05 s⁻¹ |  |  | 4.75e-05 ± 2.1e-05 s⁻¹ | 4.43e-05 ± 1.5e-05 s⁻¹ | 0.000108 ± 1.6e-05 s⁻¹ |  |
| G41C U47C | 3.99e-05 ± 4.8e-06 s⁻¹ |  |  |  |  | 3.66e-05 ± 1.1e-05 s⁻¹ |  |
| A42G U57C | 0.000292 ± 1.6e-05 s⁻¹ | 2270 ± 300 µM |  | 6.98e-05 ± 2e-05 s⁻¹ | 0.000145 ± 2.7e-05 s⁻¹ | 0.000242 ± 3.4e-05 s⁻¹ |  |
| A14U G37A | 0.000902 ± 0.00022 s⁻¹ | 3590 ± 1400 µM | 6.22e-05 ± 1.3e-05 s⁻¹ | 0.00012 ± 1.5e-05 s⁻¹ | 0.00043 ± 5.9e-05 s⁻¹ | 0.000648 ± 7.7e-05 s⁻¹ |  |
| G29C U30A | 0.000322 ± 1.4e-05 s⁻¹ | 2880 ± 230 µM |  | 5.97e-05 ± 1.4e-05 s⁻¹ | 0.000141 ± 3.8e-05 s⁻¹ | 0.000253 ± 4.6e-05 s⁻¹ |  |
| G29A A64C | < 1e-05 s⁻¹ |  | < 1e-05 s⁻¹ |  |  |  | < 1e-05 s⁻¹ |
